B1: Twister Ribozyme (parent)
chain: AACACUGCCAAUGCCGGUCCCAAGCCCGGAUAAAAGUGGAGGGGGCGG

The series covers variants of B1. Put plainly: self-cleavage, relative activity (ratio to wild type); higher = more cleavage; co-transcriptional.
Consider A23G A30G, for which the self-cleavage came out at 0.647.
For C8G C26U the value was 0.0555.
The figure for C14G G29U is 0.192.
As for A4U G43U, the self-cleavage was determined as 0.0514.
For C5U A22C the value was 0.963.
For C3A U31A the value was 0.163; for C14G G17A, 0.122.
The figure for G13U C26U is 0.109.
G13A C25A: the self-cleavage came to 0.0972.
For A11C G42U the value was 0.136; for A30G G43C, 0.225.
On to C9A G28A, for which the self-cleavage is 0.598.
As for G13A G43U, the self-cleavage is 0.182.
The figure for U31C G41U is 0.764.
The figure for A40C G42U is 0.139; for A10C C20U it is 0.941.
On to A10C C20G, for which the self-cleavage turned out to be 0.0778.
The figure for U18A G24U is 0.094.
As for G17C U31A, the self-cleavage turned out to be 0.138.
As to A33G A40U, the self-cleavage was 0.184.
As for G29A G45A, the self-cleavage was found to be 0.724.
The figure for C25G G39U is 0.121; for C3A C9A it is 0.155; for G28A G48U it is 0.778.
G29C A34U: the self-cleavage was 0.292.
As for C27G G48C, the self-cleavage was 0.147.
For the variant C25U G44U, the self-cleavage turned out to be 0.809.
The figure for A1C G47A is 0.168; for U6C G43C it is 0.128; for C25G G43U it is 0.133.
The figure for G45U G47U is 0.386; for A22G G39C it is 0.0779.
On to U18A A34C, for which the self-cleavage is 0.113.
For C15U U18A the value was 0.379; for A4U G38C, 0.252.
With G28U U31C, the self-cleavage was determined as 0.946.
On to C8U G16A, for which the self-cleavage came out at 0.442.
For C9G G47A the value was 0.38.
In the case of C9G G47U, the self-cleavage came to 0.278.
G38A G39U: the self-cleavage is 0.142.
For C5A G28U the value was 0.282; for A4U A30C, 0.0756; for U12G C19G, 0.686.
The figure for C9A A33U is 0.638.
For C8G A11G the value was 0.392; for A4G A23C, 0.0625.
In the case of G45U G48C, the self-cleavage came out at 1.48.
Regarding C14G C20U, the self-cleavage was 0.25.
For U18C G45U the value was 0.228.
For U12C G24U, the self-cleavage worked out at 0.168.
Regarding A10C G43C, the self-cleavage stood at 0.201.
Regarding G39A G45C, the self-cleavage was 0.234.
Take A23C G47A: the self-cleavage came to 0.127.
The figure for U12A A40U is 0.192.
The figure for U6G A30G is 0.322.
Consider G24C A40U, for which the self-cleavage is 0.0978.
For G47C the value was 0.706; for C9U G17A, 0.0711; for C3G A23C, 0.137.
The figure for U6G U18A is 0.0684; for A34C U37A it is 0.169; for A35C G43U it is 0.456.
For C5U G28C the value was 0.434.
Consider A4U G42U, for which the self-cleavage was determined as 0.0714.
The figure for C14U G36C is 0.464; for A4U G29C it is 0.0635; for C8U G38U it is 0.481.
The figure for C26A G39C is 0.0938; for C26G A32G it is 0.316; for G16A G39A it is 0.185.
For C15U G28A the value was 1.14; for A2U G44U, 0.429; for U18G A35G, 0.0984.
For the variant G28A G29U, the self-cleavage was 0.9.
For A11C A34G the value was 0.713; for C27A U31A, 0.676; for G29A A33U, 0.759.
The figure for A1U C26A is 0.086; for C14A C46U it is 0.827; for U6A G45U it is 0.695.
With A1C U37G, the self-cleavage was determined as 0.262.
For the variant A4G U37A, the self-cleavage came to 0.796.
As to C9U G42U, the self-cleavage was determined as 0.102.
The figure for A11C C25U is 0.733; for C3G A34U it is 0.203.
For A10U G17C the value was 0.11; for A10U U18G, 0.115; for G16C U31G, 0.663.
For A32G G47A the value was 0.924; for G39A G42A, 0.146.
Consider U6C C25U, for which the self-cleavage was determined as 0.184.
With G16U G28C, the self-cleavage was 1.02.
Turning to G24U C46U, the self-cleavage amounted to 0.0749.
For G16A C27G the value was 0.745.
On to U6C G44C, for which the self-cleavage came to 0.513.
For C20G C27A the value was 0.102; for C9U U12A, 0.794; for A1U A34G, 0.0704.
The figure for G7U C26A is 0.0629; for A40U G48U it is 0.21.
The figure for A2G A35C is 0.308; for C9G G13C it is 0.876.
A1U C8A: the self-cleavage came to 0.0697.
Turning to A1U C8G, the self-cleavage amounted to 0.0353.
The figure for C21G A40U is 0.129; for C20A G48A it is 0.104.
The figure for C20U G24U is 0.0768; for C3A it is 0.228; for G42A G48A it is 0.296.
The figure for C3U A30C is 0.335; for C19U A23U it is 0.203; for C14A G36U it is 0.221.
Regarding C3A U37C, the self-cleavage is 0.193.
For C27A G42U the value was 0.113.
Consider A10G C15A, for which the self-cleavage was 0.707.
Regarding A35G G41A, the self-cleavage was 0.246.
Consider A1G C20A, for which the self-cleavage amounted to 0.273.
For U12C C15A the value was 0.739; for C21A G38U, 0.0847.
The figure for G29A A30G is 0.892.
For A32U G39U the value was 0.158; for C14U A30U, 1.06.
C5A U6A: the self-cleavage was found to be 0.0843.
For U6C G13U the value was 0.0523; for G7A C25G, 0.237.
Regarding A34C G42A, the self-cleavage turned out to be 0.143.
The figure for G16U U18G is 0.0727; for G43A G48U it is 0.291.
For A22C G36U the value was 0.204.
For C14U C20G the value was 0.2; for G36C G44U, 0.512; for C27U G43C, 0.135.
On to A32C G45C, for which the self-cleavage is 0.546.
For U18C C21U the value was 0.0707; for A2U U37C, 0.114; for G16C G45U, 0.379.
The figure for C14A G29A is 0.974.
For C8G A23G the value was 0.0516; for A4U G17A, 0.0705; for U31C G48A, 0.901.
For the variant A23C C27G, the self-cleavage is 0.0848.
For C3A C26G the value was 0.0639.
For U6C G47C the value was 0.209; for U6G C20U, 0.236.
For G42U the value was 0.445.
For U6G C25A, the self-cleavage is 0.058.
For the variant U12C C21U, the self-cleavage worked out at 0.0795.
The figure for A10G A22C is 0.818; for C15A A35G it is 0.285; for U18C A30U it is 0.512.
The figure for C14U G43A is 0.369; for C14U G43C it is 0.227.
Turning to A1G G36A, the self-cleavage was found to be 0.252.
The figure for C15U A32G is 0.891; for G28A U31A it is 0.904; for U6C G24C it is 0.0688.
Turning to G16C G29U, the self-cleavage came to 0.194.
The figure for A32G A34U is 0.85; for A32C A34U it is 0.786.
The figure for C27A G48A is 0.275; for G28U it is 0.91; for C9G U12G it is 0.492.
For A30G G45U the value was 0.757; for A4U A11C, 0.0933.
For the variant A1G G24U, the self-cleavage was 0.163.
For G28A G39A the value was 0.326; for A1U G45A, 0.0481.

(Values after the RNAGym collection of RNA variant scans (doi:10.7554/elife.80360).)
